Data as given in paper PMC10039935, “Organic electrochemical transistors as on-site signal amplifiers for electrochemical aptamer-based sensing”.

Molecular target: TGF-β1 (transforming growth factor beta 1) (UniProt P01137 279-390)
Test: electrochemical aptamer sensor (CV/SWV, signal-off) with OECT readout; 1 mM MgCl2 in aptamer folding; aptamer on Au with MCH backfill; 1x PBS (selectivity test in bare 1x PBS); aptamer folded and MCH backfill in 1x PBS with 1 mM MgCl2; assay pH and temperature not stated
Conditions: chain copies: 2; label: 5' methylene blue; 3' thiol on Au electrode; single strand, folded

TGF-β1 (transforming growth factor beta 1), sequence (P01137 279-390): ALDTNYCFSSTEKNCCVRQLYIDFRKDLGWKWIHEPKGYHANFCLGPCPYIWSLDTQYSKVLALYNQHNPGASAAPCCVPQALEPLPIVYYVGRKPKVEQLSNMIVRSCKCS

B1: TGF-β1 aptamer (MB-modified) (XNA)
DNA: CGCTCGGCTTCACGAGATTCGTGTCGTTGTGTCCTGTACCCGCCTTGACCAGTCACTCTAGAGCATCCGGACTG
modifications: partial phosphorothioate, 5' side of some A and C, printed as * : CG*CTCGG*CTTC*ACG*AG*ATT*CGTGT*CGTTGTGT*C*CTGT*A*C*C*CG*C*CTTG*A*C*C*AGT*C*ACT*CT*AG*AGC*AT*C*CGG*A*CTG; 5' amino C6; 3' iSpC3 and thiol C3
B1: binds.
